Test results: patent US20220396635A1 (UNIVERSIT T STUTTGART, published 2022)

B1: scDb/Fab-Fc (1-1)+2, trivalent bispecific anti-EGFRxanti-CD3 (bispecific antibody)
chain: EVQLVESGGGLVQPGGSLRLSCAASGFSLTNYGVHWVRQAPGKGLEWLGVIWSGGNTDYNTPFTSRFTISRDNSKNTLYLQMNSLRAEDTAVYYCARALTYYDYEFAYWGQGTTVTVSSGGGGSDIQLTQSPSFLSASVGDRVTITCRASQSIGTNIHWYQQKPGKAPKLLIKYASESISGVPSRFSGSGSGTEFTLTISSLQPEDFATYYCQQNNNWPTTFGAGTKLEIKRGGGGSGGGGSGGGGSEVQLVESGGGLVQPGGSLRLSCAASGFSLTNYGVHWVRQAPGKGLEWLGVIWSGGNTDYNTPFTSRFTISRDNSKNTLYLQMNSLRAEDTAVYYCARALTYYDYEFAYWGQGTTVTVSSGGGGSDIQLTQSPSFLSASVGDRVTITCRASQSIGTNIHWYQQKPGKAPKLLIKYASESISGVPSRFSGSGSGTEFTLTISSLQPEDFATYYCQQNNNWPTTFGAGTKLEIKRAAADKTHTCPPCPAPPVAGPSVFLFPPKPKDTLMISRTPEVTCVVVDVSHEDPEVKFNWYVDGVEVHNAKTKPREEQYNSTYRVVSVLTVLHQDWLNGKEYKCKVSNKGLPSSIEKTISKAKGQPREPQVCTLPPSRDELTKNQVSLSCAVKGFYPSDIAVEWESNGQPENNYKTTPPVLDSDGSFFLVSKLTVDKSRWQQGNVFSCSVMHEALHNHYTQKSLSLSPGK
heavy: QVQLVQSGAEVKKPGSSVKVSCKASGGTFSGYTMNWVRQAPGQGLEWMGLINPYKGVSTYNGKFKDRVTITADKSTSTAYMELSSLRSEDTAVYYCARSGYYGDSDWYFDVWGQGTLVTVSSASTKGPSVFPLAPSSKSTSGGTAALGCLVKDYFPEPVTVSWNSGALTSGVHTFPAVLQSSGLYSLSSVVTVPSSSLGTQTYICNVNHKPSNTKVDKKVEPKSCDKTHTCPPCPAPPVAGPSVFLFPPKPKDTLMISRTPEVTCVVVDVSHEDPEVKFNWYVDGVEVHNAKTKPREEQYNSTYRVVSVLTVLHQDWLNGKEYKCKVSNKGLPSSIEKTISKAKGQPREPQVYTLPPCRDELTKNQVSLWCLVKGFYPSDIAVEWESNGQPENNYKTTPPVLDSDGSFFLYSKLTVDKSRWQQGNVFSCSVMHEALHNHYTQKSLSLSPGK
light: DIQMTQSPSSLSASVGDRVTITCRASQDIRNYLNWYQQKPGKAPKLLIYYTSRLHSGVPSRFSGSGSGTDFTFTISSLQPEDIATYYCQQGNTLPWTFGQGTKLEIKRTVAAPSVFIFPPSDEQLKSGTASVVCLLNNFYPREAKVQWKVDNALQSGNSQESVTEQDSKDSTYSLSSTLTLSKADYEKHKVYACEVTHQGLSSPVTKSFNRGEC
B2: scDb/scFv-Fc (1-1)+2, trivalent bispecific anti-EGFRxanti-CD3 (bispecific antibody)
chain 1: B1 chain
chain 2: DIQMTQSPSSLSASVGDRVTITCRASQDIRNYLNWYQQKPGKAPKLLIYYTSRLHSGVPSRFSGSGSGTDFTFTISSLQPEDIATYYCQQGNTLPWTFGQGTKLEIKRGGGGSGGGGSGGGGSQVQLVQSGAEVKKPGSSVKVSCKASGGTFSGYTMNWVRQAPGQGLEWMGLINPYKGVSTYNGKFKDRVTITADKSTSTAYMELSSLRSEDTAVYYCARSGYYGDSDWYFDVWGQGTLVTVSSAAADKTHTCPPCPAPPVAGPSVFLFPPKPKDTLMISRTPEVTCVVVDVSHEDPEVKFNWYVDGVEVHNAKTKPREEQYNSTYRVVSVLTVLHQDWLNGKEYKCKVSNKGLPSSIEKTISKAKGQPREPQVYTLPPCRDELTKNQVSLWCLVKGFYPSDIAVEWESNGQPENNYKTTPPVLDSDGSFFLYSKLTVDKSRWQQGNVFSCSVMHEALHNHYTQKSLSLSPGK
notes: also called scDbhu225xhu225-Fc(hole)Δab + scFvhuU3-Fc(knob)Δab
B3: scDb/scFv-Fc (1-2)+1, trivalent bispecific anti-FAPxanti-CD3 (bispecific antibody)
chain 1: QVQLVQSGAEVKKPGASVKVSCKASGYTFTENIIHWVRQAPGQGLEWMGWFHPGSGSIKYNEKFKDRVTMTADTSTSTVYMELSSLRSEDTAVYYCARHGGTGRGAMDYWGQGTLVTVSSGGGGSDIQMTQSPSSLSASVGDRVTITCRASQDIRNYLNWYQQKPGKAPKLLIYYTSRLHSGVPSRFSGSGSGTDFTFTISSLQPEDIATYYCQQGNTLPWTFGQGTKLEIKRGGGGSGGGGSGGGGSQVQLVQSGAEVKKPGSSVKVSCKASGGTFSGYTMNWVRQAPGQGLEWMGLINPYKGVSTYNGKFKDRVTITADKSTSTAYMELSSLRSEDTAVYYCARSGYYGDSDWYFDVWGQGTLVTVSSGGGGSDIQMTQSPSSLSASVGDRVTITCRASKSVSTSAYSYMHWYQQKPGKAPKLLIYLASNLESGVPSRFSGSGSGTDFTLTISSLQPEDFATYYCQHSRELPYTFGQGTKLEIKRAAADKTHTCPPCPAPPVAGPSVFLFPPKPKDTLMISRTPEVTCVVVDVSHEDPEVKFNWYVDGVEVHNAKTKPREEQYNSTYRVVSVLTVLHQDWLNGKEYKCKVSNKGLPSSIEKTISKAKGQPREPQVCTLPPSRDELTKNQVSLSCAVKGFYPSDIAVEWESNGQPENNYKTTPPVLDSDGSFFLVSKLTVDKSRWQQGNVFSCSVMHEALHNHYTQKSLSLSPGK
chain 2: QVQLVQSGAEVKKPGASVKVSCKASGYTFTENIIHWVRQAPGQGLEWMGWFHPGSGSIKYNEKFKDRVTMTADTSTSTVYMELSSLRSEDTAVYYCARHGGTGRGAMDYWGQGTLVTVSSGGGGSGGGGSGGGGSDIQMTQSPSSLSASVGDRVTITCRASKSVSTSAYSYMHWYQQKPGKAPKLLIYLASNLESGVPSRFSGSGSGTDFTLTISSLQPEDFATYYCQHSRELPYTFGQGTKLEIKRAAADKTHTCPPCPAPPVAGPSVFLFPPKPKDTLMISRTPEVTCVVVDVSHEDPEVKFNWYVDGVEVHNAKTKPREEQYNSTYRVVSVLTVLHQDWLNGKEYKCKVSNKGLPSSIEKTISKAKGQPREPQVYTLPPCRDELTKNQVSLWCLVKGFYPSDIAVEWESNGQPENNYKTTPPVLDSDGSFFLYSKLTVDKSRWQQGNVFSCSVMHEALHNHYTQKSLSLSPGK
notes: The FAP site is hu36; also called scDbFAPxCD3-Fc(hole)Δab + scFvFAP-Fc(knob)Δab
B4: scDb/Fab-Fc (1-2)+1, trivalent bispecific anti-FAPxanti-CD3 (bispecific antibody, human IgG1, kappa)
chain: B3 chain 1
heavy: QVQLVQSGAEVKKPGASVKVSCKASGYTFTENIIHWVRQAPGQGLEWMGWFHPGSGSIKYNEKFKDRVTMTADTSTSTVYMELSSLRSEDTAVYYCARHGGTGRGAMDYWGQGTLVTVSSASTKGPSVFPLAPSSKSTSGGTAALGCLVKDYFPEPVTVSWNSGALTSGVHTFPAVLQSSGLYSLSSVVTVPSSSLGTQTYICNVNHKPSNTKVDKKVEPKSCDKTHTCPPCPAPPVAGPSVFLFPPKPKDTLMISRTPEVTCVVVDVSHEDPEVKFNWYVDGVEVHNAKTKPREEQYNSTYRVVSVLTVLHQDWLNGKEYKCKVSNKGLPSSIEKTISKAKGQPREPQVYTLPPCRDELTKNQVSLWCLVKGFYPSDIAVEWESNGQPENNYKTTPPVLDSDGSFFLYSKLTVDKSRWQQGNVFSCSVMHEALHNHYTQKSLSLSPGK
light: DIQMTQSPSSLSASVGDRVTITCRASKSVSTSAYSYMHWYQQKPGKAPKLLIYLASNLESGVPSRFSGSGSGTDFTLTISSLQPEDFATYYCQHSRELPYTFGQGTKLEIKRRTVAAPSVFIFPPSDEQLKSGTASVVCLLNNFYPREAKVQWKVDNALQSGNSQESVTEQDSKDSTYSLSSTLTLSKADYEKHKVYACEVTHQGLSSPVTKSFNRGEC
notes: also called scDbFAPxCD3-Fc(hole)Δab + VHFAP-CH1-Fc(knob)Δab + VLFAP-CLκ
B5: scDb/scFv-Fc (2-1)+1, trivalent bispecific anti-FAPxanti-CD3 (bispecific antibody)
chain 1: QVQLVQSGAEVKKPGSSVKVSCKASGGTFSGYTMNWVRQAPGQGLEWMGLINPYKGVSTYNGKFKDRVTITADKSTSTAYMELSSLRSEDTAVYYCARSGYYGDSDWYFDVWGQGTLVTVSSGGGGSDIQMTQSPSSLSASVGDRVTITCRASKSVSTSAYSYMHWYQQKPGKAPKLLIYLASNLESGVPSRFSGSGSGTDFTLTISSLQPEDFATYYCQHSRELPYTFGQGTKLEIKRGGGGSGGGGSQVQLVQSGAEVKKPGASVKVSCKASGYTFTENIIHWVRQAPGQGLEWMGWFHPGSGSIKYNEKFKDRVTMTADTSTSTVYMELSSLRSEDTAVYYCARHGGTGRGAMDYWGQGTLVTVGGGGSDIQMTQSPSSLSASVGDRVTITCRASQDIRNYLNWYQQKPGKAPKLLIYYTSRLHSGVPSRFSGSGSGTDFTFTISSLQPEDIATYYCQQGNTLPWTFGQGTKLEIKRAAADKTHTCPPCPAPPVAGPSVFLFPPKPKDTLMISRTPEVTCVVVDVSHEDPEVKFNWYVDGVEVHNAKTKPREEQYNSTYRVVSVLTVLHQDWLNGKEYKCKVSNKGLPSSIEKTISKAKGQPREPQVCTLPPSRDELTKNQVSLSCAVKGFYPSDIAVEWESNGQPENNYKTTPPVLDSDGSFFLVSKLTVDKSRWQQGNVFSCSVMHEALHNHYTQKSLSLSPGK
chain 2: B3 chain 2
notes: also called scDbCD3xFAP-Fc(hole)Δab + scFvFAP-Fc(knob)Δab

Key:
EGFR [1] = target: T1, EGFR (UniProt P00533 25-1210, limits assumed); assay: flow cytometry, serial dilution on FaDu cells (EGFR-expressing), PE anti-human Fc detection
T1 construct: whole, on cells; the cell lines are human tumor lines
Procedure: (§1) Binding analysis of the trivalent, bispecific antibodies was performed by flow cytometry using tumor cell lines with different EGFR-expression levels (FIG. 20) (Table 12). Adherent cells were washed with PBS and shortly trypsinized at 37° C. Trypsin was quenched with FCS-containing medium and removed by centrifugation (500×g, 5 min.). Target cells (FaDu, LIM1215, SKBR-3, T-47-D, MCF-7 and Jurkat cells) at 1×10⁵ cells/well were incubated with a serial dilution of trivalent, bispecific antibodies for 1 h at 4° C. After removing excess of recombinant protein by washing with PBA (PBS, 2% FBS, and 0.02% sodium azide), bound protein was detected using PE-conjugated anti-human Fc mAb (Jackson ImmunoResearch Laboratories Inc). Fluorescence was measured using MACSquant VYB (Miltenyi Biotec) and data were analyzed using FlowJo (Tree Star). Relative median fluorescence intensities (MFI) were calculated as followed: relative MFI=((MFIₛₐₘₚₗₑ-(MFIdetection-MFIcells))/MFIcells).

EGFR [2] = target: T1, EGFR; assay: flow cytometry, serial dilution on MCF-7 cells (EGFR-expressing), PE anti-human Fc detection
Procedure: as §1

EGFR [3] = target: T1, EGFR; assay: flow cytometry, serial dilution on SKBR-3 cells (EGFR-expressing), PE anti-human Fc detection
Procedure: as §1

EGFR [4] = target: T1, EGFR; assay: flow cytometry, serial dilution on T-47-D cells (EGFR-expressing), PE anti-human Fc detection
Procedure: as §1

EGFR [5] = target: T1, EGFR; assay: flow cytometry, serial dilution on LIM1215 cells (EGFR-expressing), PE anti-human Fc detection
Procedure: as §1

FAP = target: T2, FAP (UniProt Q12884 1-760, limits assumed); assay: flow cytometry, serial dilution on HT1080-FAP cells (FAP-expressing), PE anti-human Fc detection
T2 construct: whole, on cells; also called FAP on HT1080-FAP cells
Procedure: Binding of trivalent, bispecific fusion proteins to FAP-expressing (HT1080-FAP) cell lines was analyzed by flow cytometry. 2×10⁵ cells/well were incubated with a serial dilution of trivalent, bispecific antibodies for 1 h at 4° C. followed by detection using a PE-conjugated anti-human Fc antibody (Jackson ImmunoResearch Laboratories Inc).

Binder | EC50 (EGFR [1]) [nM] | EC50 (EGFR [2]) [nM] | EC50 (EGFR [3]) [nM] | EC50 (EGFR [4]) [nM] | EC50 (EGFR [5]) [nM] | EC50 (FAP) [nM]
B1 | 3.6 | 0.5 | 0.8 | 0.2 | 2.6 | 
B2 | 8.9 | 0.8 | 2.8 | 0.4 | 4 | 
B3 |  |  |  |  |  | 0.6
B4 |  |  |  |  |  | 0.5
B5 |  |  |  |  |  | 0.3
